Assay [1] has as its target PCV2-His-ΔN45 capsid protein (porcine circovirus type 2) (UniProt O56129). Nature of the assay: crystal structure; PCV2-His-ΔN45 at ~12 mg/ml, crystals from 2 M ammonium sulfate, 0.1 M citric acid pH 4.6; one icosahedral particle per asymmetric unit; 2.8 Å.
Assay [2] addresses full-length PCV2 capsid protein (porcine circovirus type 2) (UniProt O56129). Nature of the assay: cryo-EM structure; in vitro assembled full-length PCV2 VLP, 300 kV Titan Krios, icosahedral reconstruction at 4.12 Å.

Substance “PCV2-His-ΔN45 capsid protein (from UniProt O56129 45-233) (domain or fragment)” displayed a stoichiometry N in assay [1] of 60 subunits.

For the substance “full-length PCV2 capsid protein (from UniProt O56129 1-233) (natural protein)”, the stoichiometry N in assay [2] worked out at 60 subunits.

The term stoichiometry N denotes the number of molecules, sites or subunits per partner or assembly.
